Source: patent US20130184160

Tests used:
Test in all cases: filter
[1] = tested on: Fibrinogen (glycosylated, untreated), P02671-2+P02675+P02679; conditions: T positions from B-TTP; average Kd of pool after round 13
[2] = biological target: Alpha-1 acid glycoprotein (UniProt P02763); conditions: T positions from B-TTP (quinoline-8-boronic acid linked at 5-position of dU via triazole), outside primer; specificity control
[3] = biological target: T1, Fetuin (UniProt P12763); conditions: T positions from B-TTP (quinoline-8-boronic acid linked at 5-position of dU via triazole), outside primer; specificity control
T1 sequence: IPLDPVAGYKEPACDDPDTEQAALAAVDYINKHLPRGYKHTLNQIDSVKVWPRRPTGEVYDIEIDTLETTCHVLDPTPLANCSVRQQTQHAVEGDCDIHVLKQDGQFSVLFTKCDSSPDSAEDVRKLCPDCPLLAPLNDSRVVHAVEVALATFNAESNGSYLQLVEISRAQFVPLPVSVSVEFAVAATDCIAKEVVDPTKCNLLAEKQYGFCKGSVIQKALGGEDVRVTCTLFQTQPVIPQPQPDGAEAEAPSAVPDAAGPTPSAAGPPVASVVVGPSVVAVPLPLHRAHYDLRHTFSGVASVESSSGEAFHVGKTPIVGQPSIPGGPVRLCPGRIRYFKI

Sequence of Alpha-1 acid glycoprotein (P02763 19-201): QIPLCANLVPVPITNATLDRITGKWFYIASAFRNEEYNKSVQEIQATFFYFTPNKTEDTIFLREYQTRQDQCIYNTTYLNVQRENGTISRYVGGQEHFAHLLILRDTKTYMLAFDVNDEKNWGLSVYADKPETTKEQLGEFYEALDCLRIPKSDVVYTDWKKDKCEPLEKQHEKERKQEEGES
Sequence of Fibrinogen (glycosylated, untreated), P02671-2+P02675+P02679 (P02671 other isoform, or with tags, fused parts or gaps, chain 1 of 3): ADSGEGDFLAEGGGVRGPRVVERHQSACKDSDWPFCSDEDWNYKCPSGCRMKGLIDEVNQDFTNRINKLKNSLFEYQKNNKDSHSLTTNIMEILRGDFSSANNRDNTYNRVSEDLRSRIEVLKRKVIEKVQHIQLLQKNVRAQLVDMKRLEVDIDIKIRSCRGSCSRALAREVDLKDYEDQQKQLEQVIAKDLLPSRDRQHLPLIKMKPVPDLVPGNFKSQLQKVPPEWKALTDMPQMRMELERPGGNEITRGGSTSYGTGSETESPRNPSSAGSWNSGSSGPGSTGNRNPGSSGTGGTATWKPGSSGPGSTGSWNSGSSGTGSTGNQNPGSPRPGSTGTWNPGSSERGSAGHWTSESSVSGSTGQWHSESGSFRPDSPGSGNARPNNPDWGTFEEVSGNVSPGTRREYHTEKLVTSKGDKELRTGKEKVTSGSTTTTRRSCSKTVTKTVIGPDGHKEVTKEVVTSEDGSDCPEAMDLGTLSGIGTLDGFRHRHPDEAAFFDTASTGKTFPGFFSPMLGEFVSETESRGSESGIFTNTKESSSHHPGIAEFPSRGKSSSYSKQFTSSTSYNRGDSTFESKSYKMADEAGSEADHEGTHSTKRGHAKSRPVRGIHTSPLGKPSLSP
Sequence of Fibrinogen (glycosylated, untreated), P02671-2+P02675+P02679 (P02675 31-491, chain 2 of 3): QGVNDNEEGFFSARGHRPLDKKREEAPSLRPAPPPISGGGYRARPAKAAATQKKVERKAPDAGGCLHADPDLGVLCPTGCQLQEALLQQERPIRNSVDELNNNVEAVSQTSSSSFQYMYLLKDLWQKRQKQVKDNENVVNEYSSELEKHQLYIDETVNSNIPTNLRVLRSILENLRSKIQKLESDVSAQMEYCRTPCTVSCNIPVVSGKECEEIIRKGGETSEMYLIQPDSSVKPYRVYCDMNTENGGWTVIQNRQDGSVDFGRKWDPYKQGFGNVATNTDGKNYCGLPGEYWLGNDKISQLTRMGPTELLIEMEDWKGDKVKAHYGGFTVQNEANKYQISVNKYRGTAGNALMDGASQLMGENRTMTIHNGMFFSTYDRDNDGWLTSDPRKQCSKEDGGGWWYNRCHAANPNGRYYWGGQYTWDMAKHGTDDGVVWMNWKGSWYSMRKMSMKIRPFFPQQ
Sequence of Fibrinogen (glycosylated, untreated), P02671-2+P02675+P02679 (P02679 27-453, chain 3 of 3): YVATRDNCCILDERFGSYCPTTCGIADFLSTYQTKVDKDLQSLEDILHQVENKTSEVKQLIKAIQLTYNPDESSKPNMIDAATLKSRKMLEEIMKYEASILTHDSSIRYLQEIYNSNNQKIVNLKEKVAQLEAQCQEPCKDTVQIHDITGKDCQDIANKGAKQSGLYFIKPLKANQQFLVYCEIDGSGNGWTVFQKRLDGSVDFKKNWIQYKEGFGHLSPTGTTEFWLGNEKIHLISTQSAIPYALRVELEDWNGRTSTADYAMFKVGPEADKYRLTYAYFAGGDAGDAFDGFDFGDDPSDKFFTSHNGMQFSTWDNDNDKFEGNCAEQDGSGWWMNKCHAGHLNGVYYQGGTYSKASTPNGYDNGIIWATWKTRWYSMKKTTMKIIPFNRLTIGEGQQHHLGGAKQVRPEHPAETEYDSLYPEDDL

## CCTTCGTTGTCTGCCTTCGTNNNNNNNNNNNNNNNNNNNNNNNNNNNNNNNNNNNNNNNNNNNNNNNNNNACCCTTCAGAATTCGCACCA [Round 13 fibrinogen pool]
[1]
  Kd: 5 µM

## CCTTCGTTGTCTGCCTTCGTAGCGGATCGAATTACGCGTTAACGGCAACCGATAACGGGACCGATTGCACACCCTTCAGAATTCGCACCA [85A B-TTP (114H)]
[2]
  Kd: 0.7 µM
[3]
  Kd: 2.2 µM
